Data published in patent US20240148892A1 (DUALITY BIOLOGICS SUZHOU, published 2024).

Tests used:
Assay in all cases: ELISA, B7 family protein immobilized on plate, serially diluted antibody
Human B7-H5, His Tag = biological target: T1, Human B7-H5, His Tag (human, UniProt Q9H7M9 33-194)
T1 construct: Bought protein; also called human B7-H5 protein; ACRO B75-H52H0; not shown: His tag
T1 sequence (looked up): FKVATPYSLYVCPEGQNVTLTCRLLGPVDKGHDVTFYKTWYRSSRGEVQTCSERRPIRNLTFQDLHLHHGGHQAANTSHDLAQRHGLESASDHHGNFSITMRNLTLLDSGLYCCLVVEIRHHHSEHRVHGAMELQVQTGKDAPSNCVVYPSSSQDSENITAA
Protocol: (§1) Human PD-Ll protein (see the table above), human B7-H2 protein, human B7-H3 protein, human B7-H4 protein, human B7-H5 protein, human B7-H6 protein, human B7-1 protein, human B7-2 protein, human PD-L2 protein, human B7-H7 protein, and human BTNL2 protein were separately immobilized on 96-well plates by incubation at 4° C. overnight. The 96-well plates were then blocked by incubation with 1% BSA in PBS at 37° C. for 1 h. After blocking, the 96-well plates were washed 3 times with PBST (PBS containing 0.05% Tween 20). […] After incubation, the 96-well plates were washed 3 times with PBST, incubated with a secondary antibody (see the table above) in binding buffer at 37° C. for 1 h, and then washed again. TMB was added for color development, and the reaction was stopped by 1 M H₂SO₄.

Human B7-H2, His Tag = biological target: T2, Human B7-H2, His Tag (human, UniProt O75144 19-258)
T2 construct: Bought protein; also called human B7-H2 protein; ACRO B72-H5221; not shown: His tag
T2 sequence (looked up): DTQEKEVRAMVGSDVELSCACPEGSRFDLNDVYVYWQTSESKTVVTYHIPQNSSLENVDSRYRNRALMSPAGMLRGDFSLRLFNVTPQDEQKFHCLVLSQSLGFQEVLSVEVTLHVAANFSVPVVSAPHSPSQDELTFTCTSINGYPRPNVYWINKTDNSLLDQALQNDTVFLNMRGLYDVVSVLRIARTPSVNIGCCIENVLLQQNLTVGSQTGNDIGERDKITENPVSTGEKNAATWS
Protocol: as §1

[1] = biological target: T3, Human B7-H4 protein, His Tag (human, UniProt Q7Z7D3 29-258)
T3 construct: Bought protein; also called ACRO B74-H5222; not shown: His tag
T3 sequence (looked up): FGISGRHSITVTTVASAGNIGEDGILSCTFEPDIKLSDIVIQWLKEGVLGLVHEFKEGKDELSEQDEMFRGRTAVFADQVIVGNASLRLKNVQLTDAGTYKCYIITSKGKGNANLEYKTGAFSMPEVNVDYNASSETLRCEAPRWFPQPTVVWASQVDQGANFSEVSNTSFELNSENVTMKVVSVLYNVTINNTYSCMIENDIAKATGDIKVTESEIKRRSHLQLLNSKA
Protocol: as §1

Human B7-H6 = biological target: T4, Human B7-H6 (human, UniProt Q68D85 25-262)
T4 construct: Bought protein; also called human B7-H6 protein; ACRO B76-H52H8
T4 sequence (looked up): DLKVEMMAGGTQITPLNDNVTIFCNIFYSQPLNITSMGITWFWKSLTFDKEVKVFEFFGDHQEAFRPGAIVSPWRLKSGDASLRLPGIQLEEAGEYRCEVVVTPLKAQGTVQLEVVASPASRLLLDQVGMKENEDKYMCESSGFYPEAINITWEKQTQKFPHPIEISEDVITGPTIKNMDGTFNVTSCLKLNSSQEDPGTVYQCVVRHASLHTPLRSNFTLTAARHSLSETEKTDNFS
Protocol: as §1

[2] = biological target: T5, Human B7-1 protein, His Tag (human, UniProt P33681 35-242)
T5 construct: Bought protein; also called ACRO B71-H5228; not shown: His tag
T5 sequence (looked up): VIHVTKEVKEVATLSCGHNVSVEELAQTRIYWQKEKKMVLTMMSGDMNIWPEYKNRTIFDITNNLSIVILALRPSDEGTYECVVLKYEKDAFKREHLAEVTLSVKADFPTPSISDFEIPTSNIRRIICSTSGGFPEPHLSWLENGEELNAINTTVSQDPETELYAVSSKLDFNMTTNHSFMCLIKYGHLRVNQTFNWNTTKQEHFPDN
Protocol: as §1

Human B7-H7, His Tag = biological target: T6, Human B7-H7, His Tag (human, UniProt Q9UM44 23-344)
T6 construct: Bought protein; also called human B7-H7 protein; ACRO B77-H52H5; not shown: His tag
T6 sequence (looked up): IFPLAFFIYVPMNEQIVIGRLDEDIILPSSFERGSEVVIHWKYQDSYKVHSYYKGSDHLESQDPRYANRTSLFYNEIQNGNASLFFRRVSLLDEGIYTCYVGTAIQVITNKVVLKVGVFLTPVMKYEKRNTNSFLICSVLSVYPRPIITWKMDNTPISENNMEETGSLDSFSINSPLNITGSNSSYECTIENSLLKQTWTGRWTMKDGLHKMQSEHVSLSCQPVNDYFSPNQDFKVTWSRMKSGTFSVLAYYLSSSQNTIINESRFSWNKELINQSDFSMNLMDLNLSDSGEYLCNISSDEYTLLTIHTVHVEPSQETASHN
Protocol: as §1

Measured: binding result

B1: W301088-1.145.16-z3-p1-uIgG1KV320 (antibody, V domains shown)
VH: QVQLQESGPGLVKPSQTLSLTCTVTDYSITGDYAWNWIRQHPGKGLEWIGYISYSGSTSYNPSLQSRVTISRDTSKNQFSLKLSSVTAADTAVYFCARSLGRRWYFVVWGQGTTVTVSS
VL: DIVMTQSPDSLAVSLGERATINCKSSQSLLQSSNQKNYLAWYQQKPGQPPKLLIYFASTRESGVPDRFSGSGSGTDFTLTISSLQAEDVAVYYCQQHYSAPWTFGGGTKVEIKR
notes: Humanized, PTM-removed (VL N027dQ) human IgG1 LALA kappa antibody; also called WBP301088; W301088-z3-p1
no binding: all assays above
